The results in this text go back to patent US20240327522A1 (Genentech, published 2024).

One may read the Kd as a measure of binding affinity in units of concentration. In general, koff refers to the first-order rate constant of dissociation. In general, kon refers to a measure of how fast the partners come together.

In assay [1] the target is T1, recombinant rat αvβ8 protein (PARS-22180) (rat, UniProt F1LZX9 31-987; A0A0G2JVU1 43-682).
T1 construct: also called rat.aVb8
As to the kind of experiment: SPR, Biacore T200, antibody captured on Protein A chip, 3-fold analyte series 0-100 nM, 37 C, 1:1 model; average ± as printed. The procedure: (§1) The ability of the anti-αVP8-65 to bind to different αVβ8 proteins was assessed using SPR measurements (Karlsson et al. 1991) on a Biacore™ T200 (Cytiva Life Sciences; Marlborough, MA) instrument (Safsten et al. 2006). anti-αV08-65 was first captured on a Biacore™ Protein A biosensor chip (Cytiva Life Sciences) to achieve approximately 60 response units. Binding measurements were performed using a running buffer composed of 10 mM HEPES (pH 7.4), 150 mM NaCl, 0.5 mM CaCl₂), 0.5 mM MgCl₂, and 0.005% Surfactant P20 (Cytiva Life Sciences). A 3-fold dilution series of the analyte proteins (range, 0-100 nM in running buffer) was injected into the Biacore™ T200. All injections were performed over 180 seconds, with a dissociation time of 1200 seconds, at a flow rate of 100 μL/minute and a temperature of 37° C. Between sample injections, 10 mM glycine (pH 1.5) was injected to regenerate the sensor chip (twice, over 30 seconds at 10 μL/minute for each injection). To determine the binding kinetics and affinity constants of anti-αVP8-65 to the various species of the αVβ8 protein, the signal from the reference flow cell (FC1, with only protein A on the surface) was “double referenced” by subtracting the signal observed after injecting the sample over FC1, followed by subtracting the signal observed after injecting only running buffer. The kinetic constants were calculated using non-linear regression fitting of the data, according to a 1:1 Langmuir binding model, using Biacore™ Evaluation Software (Cytiva Life Sciences) for anti-αVP8-65 binding to recombinant human, cynomolgus monkey, mouse, and rat αVβ8 proteins.
For orientation: In SPR one partner is held on a chip, and binding of the other changes the refractive index at the surface.

Assay [2] has as its target T2, recombinant mouse αvβ8 protein (PARS-17103) (murine, UniProt P43406 31-988; Q0VBD0 43-681, limits assumed).
T2 construct: Made in house; also called mu.aVb8.17103
The description is as above. Here is the method:
as §1

Assay [3] concerns the target T3, recombinant cynomolgus monkey αvβ8 protein (PARS-19393) (cynomolgus monkey, UniProt A0A2K5WCD3 31-992; G7P0S0 43-684).
T3 construct: also called cyno.aVb8-19393; cyno.aVb8
Described as above. Here is the method: as §1

Assay [4] has as its target T3, recombinant cynomolgus monkey αvβ8 …. As to the kind of experiment: SPR binding assay, experiment 1, antibody as ligand, aVb8 as sample.

T2 sequence (P43406 31-988 limits assumed, chain 1 of 2): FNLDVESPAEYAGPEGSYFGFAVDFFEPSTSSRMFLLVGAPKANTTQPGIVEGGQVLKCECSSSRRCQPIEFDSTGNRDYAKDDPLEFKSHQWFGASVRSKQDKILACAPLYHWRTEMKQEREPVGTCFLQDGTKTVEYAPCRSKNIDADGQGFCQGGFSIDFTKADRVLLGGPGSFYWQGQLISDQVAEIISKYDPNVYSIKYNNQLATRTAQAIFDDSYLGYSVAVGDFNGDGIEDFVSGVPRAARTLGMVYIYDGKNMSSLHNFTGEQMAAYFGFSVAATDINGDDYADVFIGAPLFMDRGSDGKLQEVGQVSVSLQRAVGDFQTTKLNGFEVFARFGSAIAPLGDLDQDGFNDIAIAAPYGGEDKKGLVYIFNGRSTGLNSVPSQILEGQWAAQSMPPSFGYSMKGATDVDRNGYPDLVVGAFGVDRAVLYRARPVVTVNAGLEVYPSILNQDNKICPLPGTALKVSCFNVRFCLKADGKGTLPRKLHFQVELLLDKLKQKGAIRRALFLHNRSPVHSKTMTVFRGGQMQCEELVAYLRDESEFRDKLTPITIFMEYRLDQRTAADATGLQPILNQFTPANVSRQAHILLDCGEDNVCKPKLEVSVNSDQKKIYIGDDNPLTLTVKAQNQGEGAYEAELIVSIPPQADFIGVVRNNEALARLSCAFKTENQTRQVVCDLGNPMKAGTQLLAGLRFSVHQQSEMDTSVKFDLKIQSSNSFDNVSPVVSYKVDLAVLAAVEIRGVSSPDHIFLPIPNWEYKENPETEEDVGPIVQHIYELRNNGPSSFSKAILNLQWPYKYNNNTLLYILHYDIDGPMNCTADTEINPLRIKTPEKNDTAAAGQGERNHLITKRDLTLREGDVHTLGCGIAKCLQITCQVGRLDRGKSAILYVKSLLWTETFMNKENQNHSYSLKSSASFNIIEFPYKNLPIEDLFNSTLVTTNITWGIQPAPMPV
T2 sequence (Q0VBD0 43-681 limits assumed, chain 2 of 2): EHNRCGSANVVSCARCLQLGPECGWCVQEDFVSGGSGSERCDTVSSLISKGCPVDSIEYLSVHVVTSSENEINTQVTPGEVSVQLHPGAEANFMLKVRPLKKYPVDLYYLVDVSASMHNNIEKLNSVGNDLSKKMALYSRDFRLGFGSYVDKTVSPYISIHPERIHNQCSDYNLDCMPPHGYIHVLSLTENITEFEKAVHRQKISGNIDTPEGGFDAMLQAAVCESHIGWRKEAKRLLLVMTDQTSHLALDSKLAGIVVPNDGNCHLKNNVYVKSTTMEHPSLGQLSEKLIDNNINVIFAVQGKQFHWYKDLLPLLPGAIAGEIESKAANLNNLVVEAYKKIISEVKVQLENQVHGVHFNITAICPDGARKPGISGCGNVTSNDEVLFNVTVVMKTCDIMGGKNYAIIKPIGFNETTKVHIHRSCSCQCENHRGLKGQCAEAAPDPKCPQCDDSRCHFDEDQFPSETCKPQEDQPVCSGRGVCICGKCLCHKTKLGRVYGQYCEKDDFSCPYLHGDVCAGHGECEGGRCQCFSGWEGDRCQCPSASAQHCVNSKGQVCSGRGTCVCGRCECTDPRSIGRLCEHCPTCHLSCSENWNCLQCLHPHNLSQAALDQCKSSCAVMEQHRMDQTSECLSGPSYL

B1: Hu.aVb8-65.H15L2 (aVb8-65.H15L2.hIgG1.LALAPG) (antibody, V domains shown)
VH: EVQLLESGGGLVQPGGSLRLSCAASGIDLSNYAMIWVRQAPGKGLEWVGIISSSDRIWYASWVKGRFTISRDNSKNTLYLQMNSLRAEDTAVYYCSRSVSNSYFDGWNLWGQGTLVTVSS
VL: DIQMTQSPSSVSASVGDRVTITCQASENINSLLAWYQQKPGKAPKLLIYRASTLASGVPSRFSGSGSGTDFTLTISSLQPEDFATYYCQSNYGFTGSGAFFYGFGQGTKVEIKR
notes: Human IgG1 LALAPG; also called PARS-20475-65 (IH) aVb8-65.H15L2.hIgG1.LALAPG; humanized αvβ8-65
Consider B1, for which the Kd in assay [1] came to 1 nM; in assay [2], 0.94 nM; in assay [3], 0.7 nM; in assay [4], 0.48 nM. For the same molecule, the koff in assay [1] amounted to 0.00011 s⁻¹; in assay [2], 0.000108 s⁻¹; in assay [3], 0.00013 s⁻¹; in assay [4], 0.000164 s⁻¹. Also, the kon in assay [1] stood at 104000 M⁻¹ s⁻¹; in assay [2], 140000 M⁻¹ s⁻¹; in assay [3] it was 180000 M⁻¹ s⁻¹; in assay [4], 341000 M⁻¹ s⁻¹.
